Reference: article PMC8672344

Biological target: Y75H holo-HasAp (heme-loaded hemophore HasAp, Y75H variant) (Pseudomonas aeruginosa) (UniProt G3XD33)
Assay: SPR

For “HasR outer membrane receptor in styrene-maleic acid lipid nanodisc (HasR-SMALP)”, the Kd was 394 nM.
